In patent publication US20240360223A1 (DRAGONFLY THERAPEUTICS, published 2024):
Residue numbers refer to the chain shown, from its start. Values belong to the binder of their own block, whether it stands above or below them.

How the values were obtained:
[1] = molecular target: T1, human BAFF-R expressed on cells (human, UniProt Q96RJ3 1-184); test: cell-based or functional assay
[2] = molecular target: T1, human BAFF-R expressed on cells; test: flow cytometry, BAFF-R-CHO cells
[3] = molecular target: T1, human BAFF-R expressed on cells; test: told of the group of Table 17, reference AB0369; format not given
[4] = molecular target: T2, hBAFF-R-hFc-His fusion protein (human, UniProt Q96RJ3 1-78, biotinylated in the yeast display assays); test: yeast display flow cytometry after challenge: 100 pM hBAFFR-Fc biotin for 1hr at RT, then 1 mM nonbiotinylated hBAFFR-Fc (as printed on the sheet)
T2 construct: the whole entry is named; also called hBAFFR-Fc; biotinylated hBAFF-R-hFc-His

[5] = molecular target: T1, human BAFF-R expressed on cells; test: flow cytometry, hBAFF-R+ cells
[6] = molecular target: T3, cynomolgus monkey BAFF-R expressed on cells (cynomolgus monkey); test: flow cytometry, cBAFF-R+ cells
T3 construct: whole, on cells; also called cBAFF-R; cynoBAFF-R

[7] = molecular target: T1, human BAFF-R expressed on cells; test: blocking of BAFF-biotin on hBAFF-R CHO cells
[8] = molecular target: T3, cynomolgus monkey BAFF-R expressed on …; test: flow cytometry, cyno BAFF-R CHO cells
[9] = molecular target: T1, human BAFF-R expressed on cells; test: flow cytometry, human BAFF-R CHO cells
[10] = molecular target: T3, cynomolgus monkey BAFF-R expressed on …; test: flow cytometry, cyno BAFF-R CHO cells; remark: listed apart in the source
[11] = molecular target: T1, human BAFF-R expressed on cells; test: flow cytometry, human BAFF-R CHO cells; remark: listed apart in the source
[12] = molecular target: T1, human BAFF-R expressed on cells; test: blocking of BAFF-biotin on BAFF-R CHO cells
[13] = molecular target: T1, human BAFF-R expressed on cells; test: flow cytometry, hBAFF-R+ cells; remark: listed apart in the source
[14] = molecular target: T1, human BAFF-R expressed on cells; test: flow cytometry on hBAFFR-CHO cells, anti-mouse IgG(H+L)-PE
[15] = molecular target: T1, human BAFF-R expressed on cells; test: flow cytometry, RAJI cells
Description: The BAFF-R positive human B lymphoblastoid RAJI cell line was used to assess TriNKET binding to cell surface BAFF-R. Certain BAFF-R TriNKETs in the 2-Fab and F3′ formats, as described in the “exemplary multispecific binding proteins” subsection above, were diluted and incubated with Raji cells. Binding patterns of TriNKETs and parental monoclonal antibodies were detected using a fluorophore conjugated anti-human IgG secondary antibody. The cells were then incubated with a fluorophore conjugated anti-human IgG secondary antibody and were analyzed by flow cytometry. The mean fluorescence intensity (MFI) values were normalized to secondary antibody only controls to obtain fold over background (FOB) values.

[16] = molecular target: T1, human BAFF-R expressed on cells; test: flow cytometry on hBAFFR-CHO cells, anti-mouse (H+L)-PE

KHYG-A-CD16Av mediated Cytolysis of Ramos cells EC50 [1]: 0.15 nM
EC50 [2]: 5.72 nM
fold improvement in BAFF-R binding against AB0369 [3]: > 3 fold
B1: AB0605 (bispecific antibody, V domains shown)
VH: EVQLVQSGGGVVQPGRSLRLSCAASGFTFSSYGMHWVRQAPGKCLEWVAVIWYDGSNKYYGDSVKGRFTISRDNSKNTLYLQMNSLRDEDTAVYYCARRFTMLRGQYIEDYGMDVWGQGTTVTVSS
VL: not shown
notes: also called AB0605-001

Iana (percent of events in the drawn gate named Iana) [4]: 23.4
B2: AB1080scFv (scFv, V domains shown)
VH: B1 VH with G55A, M102H, Q106W, M113L
VL: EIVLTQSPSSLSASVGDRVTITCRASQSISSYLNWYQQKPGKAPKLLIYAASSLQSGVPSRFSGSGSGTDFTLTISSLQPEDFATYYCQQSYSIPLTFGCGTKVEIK
notes: scFv on yeast; also called AB1080 (yeast clone)

EC50 [5]: 5.78 nM
EC50 [6]: 4.34 nM
IC50 [7]: 12.7 nM
EC50 [8]: 3.29 nM
EC50 [9]: 4.48 nM
B3: AB1085 (bispecific antibody, V domains shown)
VH: B1 VH with S30G, M102H
VL: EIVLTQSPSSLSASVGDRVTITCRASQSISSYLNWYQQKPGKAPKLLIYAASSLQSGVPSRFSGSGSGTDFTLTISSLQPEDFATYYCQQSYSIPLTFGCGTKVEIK
notes: also called AB1085-001

EC50 [5]: 1.97 nM
EC50 [6]: 1.36 nM
IC50 [7]: 5.72 nM
EC50 [8]: 2.36 nM
EC50 [9]: 2.71 nM
B4: AB1080 (bispecific antibody, V domains shown)
VH: B1 VH with G55A, M102H, Q106W, M113L
VL: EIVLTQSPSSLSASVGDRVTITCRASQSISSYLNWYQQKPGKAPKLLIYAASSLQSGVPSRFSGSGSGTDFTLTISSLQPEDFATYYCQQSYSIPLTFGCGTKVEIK
notes: also called AB1080-002; AB1080-003

EC50 [10]: 2.6 nM
EC50 [11]: 2.3 nM
IC50 [12]: 9.4 nM
B5: AB0679 (bispecific antibody, V domains shown)
VH: B1 VH with T28P, Q106W
VL: not shown
notes: also called AB0679-001

EC50 [5]: > 8 nM
EC50 [6]: > 14 nM
B6: AB1081 (bispecific antibody, V domains shown)
VH: B1 VH with T28A, G55E, K76R, M102N, Q106W, Y107I, M113L
VL: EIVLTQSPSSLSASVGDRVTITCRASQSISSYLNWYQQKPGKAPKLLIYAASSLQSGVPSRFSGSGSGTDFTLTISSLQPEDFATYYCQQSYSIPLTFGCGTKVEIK
notes: also called AB1081-002

EC50 [13]: 4.3 nM
B7: AB0898 (bispecific antibody, V domains shown)
VH: B1 VH with Y32S, G55A, M102R, Q106W, M113L
VL: not shown

EC50 [13]: 11.7 nM
B8: AB0900 (bispecific antibody, V domains shown)
VH: B1 VH with Y32S, G55A, M102S, Q106W, M113L
VL: not shown

EC50 [13]: 4.3 nM
B9: AB0899 (bispecific antibody, V domains shown)
VH: B1 VH with Y32S, G55A, M102Y, Q106W, M113L
VL: not shown

EC50 [10]: 3.1 nM
EC50 [11]: 2.4 nM
IC50 [12]: 12.6 nM
B10: AB0682 (bispecific antibody, V domains shown)
VH: B1 VH with Y32S, Q106W
VL: not shown
notes: also called AB0682-001

Iana (percent of events in the drawn gate named Iana) [4]: 27.2
B11: AB1081scFv (scFv, V domains shown)
VH: B1 VH with T28A, G55E, K76R, M102N, Q106W, Y107I, M113L
VL: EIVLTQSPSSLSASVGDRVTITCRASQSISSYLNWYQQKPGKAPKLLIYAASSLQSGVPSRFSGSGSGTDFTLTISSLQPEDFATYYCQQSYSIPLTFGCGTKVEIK
notes: scFv on yeast; also called AB1081 (yeast clone)

Iana (percent of events in the drawn gate named Iana) [4]: 7.4
B12: AB1084scFv (scFv, V domains shown)
VH: B1 VH with S31M, G55A, M102R, Q106W, M113L
VL: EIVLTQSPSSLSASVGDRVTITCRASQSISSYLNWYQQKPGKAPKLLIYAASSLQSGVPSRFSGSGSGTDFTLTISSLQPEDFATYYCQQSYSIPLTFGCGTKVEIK
notes: scFv on yeast; also called AB1084 (yeast clone)

KHYG-A-CD16Av mediated Cytolysis of Ramos cells EC50 [1]: 0.09 nM
EC50 [2]: 3.45 nM
fold improvement in BAFF-R binding against AB0369 [3]: > 3 fold
B13: AB0622 (bispecific antibody, V domains shown)
VH: B1 VH with Q106W, Y107I
VL: not shown
notes: also called AB0622-001

KHYG-A-CD16Av mediated Cytolysis of Ramos cells EC50 [1]: 0.06 nM
EC50 [2]: 4.5 nM
fold improvement in BAFF-R binding against AB0369 [3]: > 3 fold
B14: AB0606 (bispecific antibody, V domains shown)
VH: B1 VH with Q106W
VL: not shown
notes: also called AB0606-001

EC50 (read off the curve) [14]: ~0.3 nM
B15: 3A1 (antibody, V domains shown)
VH: QVQLQQPGAELVKPGASVKLSCKASGYTFTSYWMHWVKQRPGQGLEWIGEIDPFDSYTNYNQNFKGKATLTVDKSSSTAYMLLSSLTSDDSAVYYCARERLRLWSYYFDYWGQGTTLTVSS
VL: DVVMTQTPLSLPVSLGDQASISCRSSQSIVHSNGNTYLEWYLQKPGQSPKLLIYKVSNRLSGVPDRFSGSGSGTDFTLKISRVEAEDLGVYYCFQGSHDPFTFGSGTKLEIK
notes: Mouse hybridoma mAb from DNA immunization; also called clone 3A1

EC50 (read off the curve) [14]: ~0.3 nM
B16: 7G4 (antibody, V domains shown)
VH: B15 VH with I51V, F54S, N63K, M81I, S85N, L101V, Y107F
VL: B15 VL
notes: Mouse hybridoma mAb from DNA immunization; also called clone 7G4

EC50 [15]: 0.361 nM
EC50 [10]: 2.9 nM
EC50 [11]: 4.3 nM
B17: Ianalumab-F3′ (bispecific antibody, human IgG1, kappa)
chain: DIVLTQSPATLSLSPGERATLSCRASQFILPEYLSWYQQKPGQAPRLLIYGSSSRATGVPARFSGSGSGTDFTLTISSLEPEDFAVYYCQQFYSSPLTFGCGTKVEIKGGGGSGGGGSGGGGSGGGGSQVQLQQSGPGLVKPSQTLSLTCAISGDSVSSNSAAWGWIRQSPGRCLEWLGRIYYRSKWYNSYAVSVKSRITINPDTSKNQFSLQLNSVTPEDTAVYYCARYQWVPKIGVFDSWGQGTLVTVSSASDKTHTCPPCPAPELLGGPSVFLFPPKPKDTLMISRTPEVTCVVVDVSHEDPEVKFNWYVDGVEVHNAKTKPREEQYNSTYRVVSVLTVLHQDWLNGKEYKCKVSNKALPAPIEKTISKAKGQPREPRVYTLPPCRDELTKNQVSLTCLVKGFYPSDIAVEWESNGQPENNYKTTPPVLVSDGSFTLYSKLTVDKSRWQQGNVFSCSVMHEALHNHYTQKSLSLSPG
heavy: EVQLVESGGGLVKPGGSLRLSCAASGFTFSSYSMNWVRQAPGKGLEWVSSISSSSSYIYYADSVKGRFTISRDNAKNSLYLQMNSLRAEDTAVYYCARGAPIGAAAGWFDPWGQGTLVTVSSASTKGPSVFPLAPSSKSTSGGTAALGCLVKDYFPEPVTVSWNSGALTSGVHTFPAVLQSSGLYSLSSVVTVPSSSLGTQTYICNVNHKPSNTKVDKKVEPKSCDKTHTCPPCPAPELLGGPSVFLFPPKPKDTLMISRTPEVTCVVVDVSHEDPEVKFNWYVDGVEVHNAKTKPREEQYNSTYRVVSVLTVLHQDWLNGKEYKCKVSNKALPAPIEKTISKAKGQPREPQVCTLPPSRDELTENQVSLTCLVKGFYPSDIAVEWESNGQPENNYKTTPPVLDSDGSFFLYSWLTVDKSRWQQGNVFSCSVMHEALHNHYTQKSLSLSPG
light: DIQMTQSPSSVSASVGDRVTITCRASQGISSWLAWYQQKPGKAPKLLIYAASSLQSGVPSRFSGSGSGTDFTLTISSLQPEDFATYYCQQGVSFPRTFGGGTKVEIKRTVAAPSVFIFPPSDEQLKSGTASVVCLLNNFYPREAKVQWKVDNALQSGNSQESVTEQDSKDSTYSLSSTLTLSKADYEKHKVYACEVTHQGLSSPVTKSFNRGEC
notes: F3′ TriNKET: BAFF-R scFv-Fc (chain S), NKG2D Fab heavy (chain H) and light (chain L); no ADCC-enhancing mutations; also called ianalumab-F3′ TriNKET; Tool-F3′

EC50 (read off the curve) [16]: 1 to 10 nM
B18: 10H7-C5 (antibody, V domains shown)
VH: EVQLVESGGGLVKPGGSLKLSCAASGFSFSRYAMSWVRQTPEKRLEWVATISDGGSYTHYRDNVKGRFTISRDNAKNNLNLQMSHLKSEDTAIYYCARNEMGLYFDYDVYAMDYWGQGTSVTVSS
VL: DIVMTQTPLSLPVSLGDQASISCRSSQSLLHSNGNTYLYWYLQKPGQSPKLLIHRVSNRFSGVPDRFGGSGSGTDFTLKIIRVEAEDLGVYFCFQGTHVPWTFGGGTKLEIK
notes: Mouse hybridoma mAb from DNA immunization; also called clone 10H7-C5

EC50 (read off the curve) [16]: ~2 nM
B19: 1B3-A7 (antibody, V domains shown)
VH: EVQLVESGGGLVKPGGSLKLSCVVSGFTFSNYAMSWVRQTPEKRLEWVATISDGGGYTYYPDSVKGRFTISRDNAKNNLYLQMSHLKSEDTAIYYCARDDLGGGNYVSSYFDVWGTGTTVTVSS
VL: B18 VL with I2V, L15P, L30V, H54Y, G68S, I81N, W101L, G105S, I111L
notes: Mouse hybridoma mAb from DNA immunization; also called clone 1B3-A7
